Measurements from patent US20250320296A1 (published 2025).

Columns and labels:
human PD-L1 on CHO cells = molecular target: T1, human PD-L1 on CHO cells (human, UniProt Q9NZQ7 19-290); experiment: FIG. 4: Octet avidity curves and FACS on CHO-PD-L1 cells
T1 construct: also called CHO-PD-L1 cells
Procedure: (§1) Antibody Activity. Varying concentrations of PD-L1 antibodies, with human IgG1 backbones, were added to CHO cells expressing either human or murine PD-L1 (CHO-PD-L1 cells). Binding was detected by addition of anti-human IgG1 secondary antibody conjugated to phycoerythrin. FACS analysis was performed, detecting phycoerythrin to determine fluorescence activity at a variety of antibody concentrations. EC50 was calculated using GraphPad Prism® software.

[1] = molecular target: T2, murine PD-L1 on CHO cells (murine, UniProt Q9EP73 19-290); experiment: FIG. 4 legend: Octet avidity curves and FACS on CHO-PD-L1 cells
T2 construct: whole, on cells; also called CHO-PD-L1 cells
T2 sequence (Q9EP73 19-290): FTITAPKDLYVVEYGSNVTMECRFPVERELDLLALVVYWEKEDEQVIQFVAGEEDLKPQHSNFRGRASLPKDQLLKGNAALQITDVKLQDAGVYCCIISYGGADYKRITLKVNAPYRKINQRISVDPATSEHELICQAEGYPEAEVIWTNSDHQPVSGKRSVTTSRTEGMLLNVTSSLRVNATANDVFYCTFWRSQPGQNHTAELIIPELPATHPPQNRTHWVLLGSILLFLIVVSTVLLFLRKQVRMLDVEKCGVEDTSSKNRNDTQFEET
Procedure: as §1

T1 sequence (Q9NZQ7 19-290 limits assumed): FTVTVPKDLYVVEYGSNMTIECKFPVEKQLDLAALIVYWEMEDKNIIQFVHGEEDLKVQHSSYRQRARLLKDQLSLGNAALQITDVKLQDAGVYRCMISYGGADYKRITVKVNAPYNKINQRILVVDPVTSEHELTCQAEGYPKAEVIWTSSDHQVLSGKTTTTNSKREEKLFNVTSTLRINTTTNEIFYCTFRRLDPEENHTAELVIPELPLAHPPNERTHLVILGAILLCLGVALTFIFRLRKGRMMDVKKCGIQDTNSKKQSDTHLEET

B1: ADI-20799 (antibody, human IgG1, V domains shown)
VH: QVQLVQSGAEVKKPGASVKVSCKASGYTFTGVYMHWVRQAPGQGLEWMGGIFPIGGTANYAQKFQGRVTITADESTSTAYMELSSLRSEDTAVYYCARDRTSGALYWGQGTLVTVSS
VL: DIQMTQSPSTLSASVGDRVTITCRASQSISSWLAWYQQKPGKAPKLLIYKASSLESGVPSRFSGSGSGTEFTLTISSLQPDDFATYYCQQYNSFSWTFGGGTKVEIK
Q: What does the source list for B1?
A: binding result (human PD-L1 on CHO cells): binds; binding result [1]: binds
